Positions of bridges follow the written chain, without caps; N, C: chain ends. No end group written: not given here.

Data set [1] can be described thus: Cysteine effective concentration (Ceff) measurement, thiol-disulfide equilibrium relative to glutathione. The class given is physicochemical. Here is the method: Cysteine Effective Concentration Measurements. Glutathione stock solutions were prepared by mixing 3 volumes of 0.2 M reduced glutathione (GSH) with 1 volume of 0.1 M oxidized glutatione (GSSG). Aliquots were stored at −80° C. and were stable for several months; use of a single batch eliminated any error in ΔΔG values that might arise from variability of total glutathione concentration. Thiol-disulfide equilibria were established by mixing 50 μL peptide stock (approximately 3 mM in water) with 50 μL glutathione stock, deoxygenating the acidic solution with vacuum/argon cycles from a Firestone valve, then adding 300 μL of deoxygenated buffer by syringe (0.2 M tris, pH 8.0; 1 mM EDTA; 67 mM tris base to titrate glutathione), followed by further deoxygenation of the mixture. The final pH of all reaction mixtures was 8.10±0.05. Solutions were stirred under argon and maintained at 20° C. in a water bath. After 1.5 h, successive aliquots (100 μL) were removed with a gastight syringe, immediately quenched by discharge into 400 μL of 3.1 mM HCl, and analyzed by HPLC with a minimum of delay. Ceff values were calculated from the molar ratios of the reduced and oxidized forms of peptide and glutathione (peak area ratios corrected for absorbance differences measured by HPLC), assuming 0.025 M total glutathione monomer (i.e., neglecting the minor amount (<1%) of glutathione present in mixed disulfides with peptide): Ceff=([peptideox]/[peptidered])×([GSH]^2/[GSSG]) [GSH]+2[GSSG]=0.025 M [GSSG]=0.025 M/{2+3.26 (GSH peak area/GSSG peak area)} [peptideox]/[peptidered]=equilibrium peak area ratio/absorbance ratio
Two or three samples from each reaction mixture were analyzed; there were no shifts in populations with time, and calculated Ceff values typically varied by less than 5% (equivalent to 30 cal/mol uncertainty in ΔΔG).

Data set [2] can be described thus: Circular dichroism spectra of peptides. The class given is physicochemical. Conditions: 10° C.; 20 μM peptide in 20 mM potassium phosphate, pH 7.0. The procedure: Terminal serine and lysine residues were added to improve the solubility of some variants of the CD4 peptide, which are otherwise uncharged. A similar modification was made to bhpW as a control. Non-turn residues that differ between bhpW and the CD4 loop are underlined. Coelution of reduced and oxidized peptides prevented measurement of Ceff for the T2, N3 variant of the CD4 peptide. Circular dichroism spectra were acquired at 10° C. with an Aviv Instruments, Inc. Model 202 spectrophotometer; peptide concentrations were 20 μM in 20 mM potassium phosphate, pH 7.0.
A general note: CD spectra are sensitive to the conformation of chiral molecules.

A short description of data set [3]: 1H NMR analysis of hairpin structure in solution. It counts as physicochemical. Particulars: for structure in solution: NMR, ~2 mM peptide, pH 3.5. The procedure:
NMR Spectroscopy. […] All spectra were acquired on a Bruker DRX-500 or a Varian Unity-400 spectrometer at 15° C. 2QF-COSY, TOCSY and ROESY spectra were acquired as described (Cavanagh et al. (1995) Protein NMR Spectroscopy, Principles and Practices (Academic Press, San Diego) with gradient coherence selection (van Zijl et al. (1995) J. Magn. Reson. 113A:265-270), or excitation sculpting (Hwang & Shaka, (1995) J. Magn. Reson. 112A, 275-279.) for water suppression. Proton resonances were assigned by standard methods (Wüthrich (1986) NMR of Proteins and Nucleic Acids (John Wiley and Sons, New York). 3JH^N-H^α were obtained by fitting Lorentzian lines to the antiphase doublets of HN—H^α peaks in 2QF-COSY spectra processed to high digital resolution in F2. ^3JH^N-H^α were extracted from COSY-35 spectra acquired on D2O solutions of the peptides. Distance and dihedral angle restraints were generated as described (Skelton et al. (1994) Biochemistry 33:13581-13592). 100 initial structures were calculated using the hybrid distance geometry/simulated annealing program DGII (Havel et al. (1991) Prog. Biophys. Mol. Biol. 56:43-78.); 80 of these were further refined by restrained molecular dynamics using the AMBER all-atom forcefield implemented in DISCOVER as described previously (Skelton et al. (1994) Biochemistry 33:13581-13592.). […]
Structure Calculation. Structures were calculated with 78 ROE-derived distance restraints (10 medium- and 28 long-range restraints; upper bounds of 5.4, 4.3, 3.4 or 3.0 Å) and 12 dihedral angle restraints. […]
NMR Analysis. […] Spectra were acquired and analyzed as described above. The structure of cd2 was calculated from 84 (including 13 medium- and 23 long-range) ROE-derived distance restraints and 13 dihedral angle restraints. […]
Analysis of Sidechain Rotamers. […] Given the large number of backbone-backbone distance and Φ dihedral angle restraints, the structures calculated for bhpw and cd2 do accurately represent the solution conformation of these peptides, except in the over determination of some side chain orientations.

In data set [4] the test system is CD4. Particulars: normal CD4 interactions and CD4-mediated cell entry by HIV; cited from earlier work.

For the substance “Ac-CTWEGNKLTC-NH2 (disulfide 1-10 (inferred)) [bhpW, tryptophan analog of the model β-hairpin peptide bhp]”, the Ceff in data set [1] (Table 1, bhp peptides varied at residue 3, pH 8.10, 20° C.) was determined as 210 ± 4 mM; in data set [1] (Table 2, bhpW and CD4 C′-C″ loop peptides, pH 8.10, 20° C.) it was 210 ± 4 mM. Moreover, in data set [2], the “[θ]215” value was −19,800 deg cm^2 dmol^−1. In addition, the hairpin conformation population in data set [3] (15° C., estimate) is more than 80%.

For the substance “Ac-CGNQGSFLTC-NH2 (disulfide 1-10 (inferred)) [cd1, disulfide-constrained peptide based on native CD4 hairpin residues 38-45]”, the structure in solution entry in data set [3] is on record as “essentially unstructured”.

With “FCYICEVEDQCY (also: cyclic, type and places not given here) [cyclic peptide from loops of domain 1 of human CD4]”, the “antagonism of CD4 interactions” value in data set [4] was “antagonize”.

For “Ac-CTWQGSFLTC-NH2 (disulfide 1-10 (inferred)) [cd2, cd1 with substitutions G2T and N3W]”, in data set [2], the “[θ]215” value is given as −15,800 deg cm^2 dmol^−1. In addition, in data set [3], the structure in solution entry was “well-ordered”.

Source of the values: patent US7235626B1, “Structured peptide scaffold for displaying turn libraries on phage” (Genentech, Inc., priority 1999, dated 2007).
